Reference: EP4671282A1 (Jiangsu Hengrui Pharmaceuticals Co., Ltd., dated 2025)
Read-outs that look alike come from different tables or passages of the source.

T1: human IL-23 protein (ACROBiosystems, ILB-H52W5) (human, UniProt Q9NPF7 20-189; P29460 23-328)
T1 construct: Bought protein; construct not described; also called Human IL-23 antigen; human IL-23 antigen protein
T1 sequence (looked up) 1: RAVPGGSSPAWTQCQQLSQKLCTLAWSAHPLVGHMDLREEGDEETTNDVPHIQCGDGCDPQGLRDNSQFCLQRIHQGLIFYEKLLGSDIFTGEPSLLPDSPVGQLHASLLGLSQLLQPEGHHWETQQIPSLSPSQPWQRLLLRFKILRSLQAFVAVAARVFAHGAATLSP
T1 sequence (looked up) 2: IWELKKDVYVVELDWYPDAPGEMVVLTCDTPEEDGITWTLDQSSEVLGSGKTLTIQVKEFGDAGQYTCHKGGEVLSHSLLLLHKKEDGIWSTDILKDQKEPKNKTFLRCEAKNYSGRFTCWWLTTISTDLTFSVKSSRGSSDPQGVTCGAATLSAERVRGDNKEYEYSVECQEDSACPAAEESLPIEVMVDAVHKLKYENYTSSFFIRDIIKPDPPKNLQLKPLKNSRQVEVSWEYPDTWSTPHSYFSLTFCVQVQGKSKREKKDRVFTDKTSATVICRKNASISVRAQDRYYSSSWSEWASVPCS

T2: human IL-23 protein (Sino Biological, CT048-H08H) (human, UniProt Q9NPF7 20-189; P29460 23-328)
T2 construct: Detected with Anti-His-HRP in the ELISA, so it carries a His tag
T2 sequence (looked up) 1: T1 sequence (looked up) 1
T2 sequence (looked up) 2: T1 sequence (looked up) 2

T3: IL-23 (R&D Systems, 1290-IL-010) (UniProt Q9NPF7 20-189; P29460 23-328)
T3 sequence (looked up) 1: T1 sequence (looked up) 1
T3 sequence (looked up) 2: T1 sequence (looked up) 2

T4: human IL-36R full-length protein stably expressed on CHO-K1 cells (human, UniProt Q9HB29 20-575)
T4 construct: FlpIn CHO-K1 line expressing the full-length protein; also called human IL-36R on the surface of CHO-K1 cells; CHO-K1 cells overexpressing human IL-36R
T4 sequence: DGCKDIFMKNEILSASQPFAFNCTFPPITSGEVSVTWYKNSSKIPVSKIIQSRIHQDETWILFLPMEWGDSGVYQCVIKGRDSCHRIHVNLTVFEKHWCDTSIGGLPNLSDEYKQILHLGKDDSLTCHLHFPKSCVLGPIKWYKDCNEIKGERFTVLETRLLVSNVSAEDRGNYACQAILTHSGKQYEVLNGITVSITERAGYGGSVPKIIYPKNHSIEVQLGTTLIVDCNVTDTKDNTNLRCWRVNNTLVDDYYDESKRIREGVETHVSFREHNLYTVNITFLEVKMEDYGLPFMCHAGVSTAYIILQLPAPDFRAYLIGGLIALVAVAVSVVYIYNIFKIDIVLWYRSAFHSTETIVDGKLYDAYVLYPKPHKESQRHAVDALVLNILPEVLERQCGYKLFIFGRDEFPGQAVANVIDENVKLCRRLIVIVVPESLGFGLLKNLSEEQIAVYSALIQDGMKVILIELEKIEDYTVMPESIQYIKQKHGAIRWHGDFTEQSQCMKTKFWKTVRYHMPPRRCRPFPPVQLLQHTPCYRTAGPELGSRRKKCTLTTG

T5: Human IL-36R protein (His + Avi Tag), Kactus IL1-HM4L2 (human, UniProt Q9HB29 20-335)
T5 construct: Bought protein; also called human IL-36R antigen protein; Human IL-36R antigen
T5 sequence: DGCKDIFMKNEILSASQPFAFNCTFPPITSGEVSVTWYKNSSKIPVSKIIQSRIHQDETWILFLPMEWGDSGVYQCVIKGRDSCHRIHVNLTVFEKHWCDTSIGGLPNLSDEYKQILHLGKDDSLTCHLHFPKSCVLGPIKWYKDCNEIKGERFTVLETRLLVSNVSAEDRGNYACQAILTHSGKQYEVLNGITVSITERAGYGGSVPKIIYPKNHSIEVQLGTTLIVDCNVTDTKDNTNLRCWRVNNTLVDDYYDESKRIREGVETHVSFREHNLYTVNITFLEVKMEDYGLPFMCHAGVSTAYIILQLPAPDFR

T6: IL-36R on human skin squamous cell line A431 (human, UniProt Q9HB29 20-575)
T6 sequence (looked up): T4 sequence

T7: Human IL-36R protein (His + Avi Tag, biotinylation), Kactus IL1-HM4L2B (human, UniProt Q9HB29 20-335, biotinylated)
T7 construct: Screening antigen of the phage panning; also called biotinylated human IL-36R; human IL-36R antigen (screening antigen)
T7 sequence: T5 sequence

B1: Hu29-19 (humanized anti-IL-23 antibody, hAb29VH5 and hAb29VL3) (antibody, human IgG1, kappa, L234A L235A, V domains shown)
VH: QVTLKESGPVLVKPTETLTLTCTVSGFSLTNYAISWVRQPPGKGLEWLGVIWTGGGTNYNSGIKSRLTISKDNSKSQVVLTMTNMDPVDTARYYCVREGDYGSYAGAMDYWGQGTTVTVSS
VL: DIVLTQSPDSLAVSLGERATINCRASESVDYYGISSMHWFQQKPGQPPKLLIYRASNLESGIPARFSGSGSRTDFTLTISSLQAEDVAVYYCQQANKDPYTFGGGTKVEIKR
B2: IL-36R-IL-23-01 (anti-IL-36R and anti-IL-23 bispecific antibody, VHH213_Hu07 on Hu29-19, Structure A) (bispecific antibody, human IgG1, kappa, L234A L235A)
heavy: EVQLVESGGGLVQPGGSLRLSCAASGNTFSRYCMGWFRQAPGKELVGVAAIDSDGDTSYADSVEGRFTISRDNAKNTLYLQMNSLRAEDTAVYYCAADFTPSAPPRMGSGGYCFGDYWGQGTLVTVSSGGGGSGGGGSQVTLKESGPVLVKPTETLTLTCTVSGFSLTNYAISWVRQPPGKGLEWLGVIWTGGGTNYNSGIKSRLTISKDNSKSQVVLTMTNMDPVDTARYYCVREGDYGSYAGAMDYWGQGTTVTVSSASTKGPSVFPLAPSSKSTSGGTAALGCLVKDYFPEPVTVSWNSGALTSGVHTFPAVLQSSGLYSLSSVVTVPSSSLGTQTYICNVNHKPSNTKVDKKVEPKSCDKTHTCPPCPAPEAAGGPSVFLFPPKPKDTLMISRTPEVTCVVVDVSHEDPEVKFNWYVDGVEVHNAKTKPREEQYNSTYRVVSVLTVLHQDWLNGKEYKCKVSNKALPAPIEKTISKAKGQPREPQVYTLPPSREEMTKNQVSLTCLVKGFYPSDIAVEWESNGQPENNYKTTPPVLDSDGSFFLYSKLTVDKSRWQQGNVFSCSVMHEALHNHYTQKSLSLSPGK
light: DIVLTQSPDSLAVSLGERATINCRASESVDYYGISSMHWFQQKPGQPPKLLIYRASNLESGIPARFSGSGSRTDFTLTISSLQAEDVAVYYCQQANKDPYTFGGGTKVEIKRTVAAPSVFIFPPSDEQLKSGTASVVCLLNNFYPREAKVQWKVDNALQSGNSQESVTEQDSKDSTYSLSSTLTLSKADYEKHKVYACEVTHQGLSSPVTKSFNRGEC
notes: VHH fused by a (G4S)2 linker to the N-terminus of the heavy chain; IgG1 L234A/L235A
B3: IL-36R-IL-23-02 (anti-IL-36R and anti-IL-23 bispecific antibody, VHH162_Hu11 on Hu29-19, Structure A) (bispecific antibody, human IgG1, kappa, L234A L235A)
heavy: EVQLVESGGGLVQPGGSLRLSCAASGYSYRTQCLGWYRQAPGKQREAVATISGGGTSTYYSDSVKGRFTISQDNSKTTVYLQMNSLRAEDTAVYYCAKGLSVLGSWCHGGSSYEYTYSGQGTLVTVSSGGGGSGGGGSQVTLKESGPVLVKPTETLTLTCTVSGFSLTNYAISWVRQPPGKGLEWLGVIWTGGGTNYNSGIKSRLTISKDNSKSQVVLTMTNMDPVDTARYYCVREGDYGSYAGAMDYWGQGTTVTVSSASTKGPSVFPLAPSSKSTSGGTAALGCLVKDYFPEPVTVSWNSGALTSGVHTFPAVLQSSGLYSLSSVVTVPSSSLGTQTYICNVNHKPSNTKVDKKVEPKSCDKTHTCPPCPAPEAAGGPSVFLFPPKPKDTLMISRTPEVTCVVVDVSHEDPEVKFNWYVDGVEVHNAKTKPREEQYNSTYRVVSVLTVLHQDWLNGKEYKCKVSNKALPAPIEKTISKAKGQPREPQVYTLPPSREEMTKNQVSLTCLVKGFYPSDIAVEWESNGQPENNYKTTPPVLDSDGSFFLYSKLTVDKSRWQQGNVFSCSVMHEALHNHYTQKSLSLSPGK
light: B2 light
notes: VHH fused by a (G4S)2 linker to the N-terminus of the heavy chain; IgG1 L234A/L235A; also called IL-36R-1L-23-02
B4: VHH162 (camelid nanobody clone from the phage library) (VHH)
VHH: DVQLVESGGGSVQPGGSLRLSCAASGYSYRTQCLGWYRQAPGKQREAVATISGGGTSTYYSDSVKGRFTISQDNARTTVYLSLTSLKPEDTATYYCAAGLSVLGSWCHGGSSYEYTYSGQGTQVTVSS
notes: As identified by panning and clone ELISA (phage or clone format not described)

Key:
[1] = target: T1, human IL-23 protein (ACROBiosystems, …); assay: SPR (Biacore 8K), antibody captured by anti-human IgG Fc, IL-23 as analyte
[2] = target: T2, human IL-23 protein (Sino Biological, …); assay: competition ELISA, IL-23R coated, biotinylated IL-23 preincubated with antibody
[3] = target: T3, IL-23 (R&D Systems, 1290-IL-010); assay: cell-based or functional assay
[4] = target: T2, human IL-23 protein (Sino Biological, …); assay: ELISA, test sample coated, His-tagged IL-23 in solution
[5] = target: T1, human IL-23 protein (ACROBiosystems, …); assay: cell-based or functional assay
[6] = target: T1, human IL-23 protein (ACROBiosystems, …); assay: ELISA, human IL-23 coated
[7] = target: T1, human IL-23 protein (ACROBiosystems, …); assay: cell-based or functional assay; remark: listed apart in the source
[8] = target: T1, human IL-23 protein (ACROBiosystems, …); assay: cell-based or functional assay; remark: listed apart in the source
[9] = target: T2, human IL-23 protein (Sino Biological, …); assay: SPR (Biacore 8K), antibody captured on Protein A chip, IL-23 as analyte
[10] = target: T2, human IL-23 protein (Sino Biological, …); assay: cell-based or functional assay
[11] = target: T4, human IL-36R full-length protein stably …; assay: FACS, CHO-K1 cells overexpressing human IL-36R
[12] = target: T5, Human IL-36R protein (His + Avi Tag), …; assay: SPR (Biacore 8K), antibody captured by anti-human IgG Fc, IL-36R as analyte
[13] = target: T6, IL-36R on human skin squamous cell line …; assay: cell-based or functional assay
[14] = target: T7, Human IL-36R protein (His + Avi Tag, …); assay: phage panning on biotinylated human IL-36R, clone ELISA

Binder	Kd [1] [nM]	koff [1] [s⁻¹]	kon [1] [M⁻¹ s⁻¹]	DB-STAT3-Luc2 reporter gene system IC50 [5] [nM]	EC50 [6] [nM]	proliferation of BaF3-mIL-23R cells induced by IL-23, IC50 [7] [nM]	proliferation of BaF3-mIL-23R cells induced by IL-23, IC50 [8] [nM]	EC50 [11] [nM]	Maximum MFI [11] [MFI]	Kd [12] [nM]	koff [12] [s⁻¹]	kon [12] [M⁻¹ s⁻¹]	IL-8 secretion (A431), IL-36α, IC50 [13] [nM]	IL-8 secretion (A431), IL-36β, IC50 [13] [nM]	IL-8 secretion (A431), IL-36γ, IC50 [13] [nM]	also measured
B1	0.0106	6.26e-05	5.93e+06	5.1	0.55	0.36	0.43	–	–	–	–	–	–	–	–	IC50 [2]: 0.478 nM; IC50 for inhibiting IL-17 secretion [3]: 0.0177 nM; EC50 [4]: 1.11 nM; Kd [9]: 0.0151 nM; koff [9]: 4.08e-05 s⁻¹; kon [9]: 2.71e+06 M⁻¹ s⁻¹; Activity in inhibiting proliferation of BaF3-IL-23R cells (IC50, nM) [10]: 0.194 nM
B2	0.023	5.97e-05	2.6e+06	7	1.21	0.39	–	1.28	11600	6.47	0.000123	19100	0.54	0.2	0.06	–
B3	0.0235	6.83e-05	2.9e+06	8.8	0.49	–	0.5	1.13	11400	15.9	0.000146	9210	1.63	0.74	0.21	–
B4	–	–	–	–	–	–	–	–	–	–	–	–	–	–	–	binding result [14]: binds
